Test results as given in article PMC3072105 (Nature Communications, 2011).

T1: KvAP channel from Aeropyrum pernix, wild type (Aeropyrum pernix, UniProt Q9YDF8 14-295)
T1 sequence (looked up): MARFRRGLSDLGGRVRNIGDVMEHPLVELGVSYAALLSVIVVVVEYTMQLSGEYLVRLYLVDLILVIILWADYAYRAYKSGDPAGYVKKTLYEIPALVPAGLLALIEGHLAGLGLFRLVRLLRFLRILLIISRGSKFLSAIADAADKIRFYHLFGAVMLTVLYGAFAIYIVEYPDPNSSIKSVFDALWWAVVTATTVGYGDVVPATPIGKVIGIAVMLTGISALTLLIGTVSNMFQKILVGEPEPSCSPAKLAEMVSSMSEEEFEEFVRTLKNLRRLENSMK


Key:
[1] = biological target: full-length KvAP-T225C (Aeropyrum pernix); experiment: cross-linking
[2] = biological target: T1, KvAP channel from Aeropyrum pernix, …; experiment: electrophysiology

| Molecule | stoichiometry N [1] | Kd [2] |
| --- | --- | --- |
| full-length KvAP-T225C (natural protein) | 4 |  |
| GNHAEIYSNHHMMSHVGGGR [synthetic φD peptide] |  | 21.2 ± 3.5 µM |
